# According to US20140323392A1 (UNIVERSITY OF UTAH RESEARCH FOUNDATION, published 2014):
# Bridges are numbered along the chain shown (N, C = ends). Roman numbers before positions name the chains, in order. Where no end group is shown, it is not given here. [ ]: non-standard residue; d: D form.
# B1: C0C(PIE7-GK)3 (peptide)
# peptide 1: Ac-G[dA][dC][dD][dY][dP][dE][dW][dQ][dW][dL][dC][dA][dA]G[dK]-NH2
# peptide 2: Ac-G[dA][dC][dD][dY][dP][dE][dW][dQ][dW][dL][dC][dA][dA]G[dK][dK]-NH2
# modifications: disulfide I:3-I:12, II:3-II:12 (inferred); also: trimer, C-terminal Lys residues linked by zero length spacers
# B2: N0C(PIE7)2 (peptide)
# peptide: Ac-[dK]G[dA][dC][dD][dY][dP][dE][dW][dQ][dW][dL][dC][dA][dA]-NH2
# modifications: disulfide 4-13 (inferred); also: dimer linked N- to C-terminal by zero-length spacer
# B3: PIE7-GK short claw (peptide)
# peptide: Ac-G[dA][dC][dD][dY][dP][dE][dW][dQ][dW][dL][dC][dA][dA]G[dK]-NH2
# modifications: disulfide 3-12 (inferred); also: linked directly to trifunctional crosslinker TSAT
# B4: C5C(PIE7-GK)3 (peptide)
# peptide 1: Ac-G[dA][dC][dD][dY][dP][dE][dW][dQ][dW][dL][dC][dA][dA]G[dK]-NH2
# peptide 2: Ac-G[dA][dC][dD][dY][dP][dE][dW][dQ][dW][dL][dC][dA][dA]G[dK][dK]-NH2
# modifications: disulfide I:3-I:12, II:3-II:12 (inferred); also: trimer: C-terminal Lys linked by PEG5 spacers
# B5: N0N(PIE7)2 (peptide)
# peptide: Ac-[dK]G[dA][dC][dD][dY][dP][dE][dW][dQ][dW][dL][dC][dA][dA]-NH2
# modifications: disulfide 4-13 (inferred); also: dimer, N- to N-terminal link by zero length spacer
# B6: PEG5-(PIE13)2 (peptide)
# peptide: Ac-[dH][dP][dC][dD][dY][dP][dE][dW][dQ][dW][dL][dC]K[dL]G[dK]-NH2
# modifications: disulfide 3-12 (inferred); not fully specified (residue 13); also: dimer crosslinked by PEG5 via internal Lys
# B7: PEG4-ΔHP-PIE12-trimer (peptide)
# peptide: [dC][dD][dY][dP][dE][dW][dQ][dW][dL][dC][dE][dL]GK
# modifications: disulfide 1-10 (inferred); not fully specified (residue 14); also: homotrimer on trimethylolethane-triNHS ester scaffold
# Molecular target: T1, HIV-1 HXB2 envelope glycoprotein gp41 (N-trimer of the prehairpin intermediate) (HIV-1 strain HXB2, UniProt P04578 512-856)
# Assay: cell-based or functional assay
row,Binder,"IC50, HXB2 pseudovirion entry"
1,Ac-G[dA][dC][dD][dY][dP][dE][dW][dQ][dW][dL][dC][dA][dA]G[dK]-NH2 (disulfide 3-12 (inferred)) [PIE7-GK],390 nM
2,B1,0.12 nM
3,Ac-[dH][dA][dC][dD][dY][dP][dE][dW][dQ][dW][dL][dC][dE][dL]G[dK]-NH2 (disulfide 3-12 (inferred)) [PIE15],67 nM
4,Ac-[dK]G[dA][dC][dD][dY][dP][dE][dW][dQ][dW][dL][dC][dA][dA]-NH2 (disulfide 4-13 (inferred); also: dimer linked N- to C-terminal by PEG5 spacer) [N5C(PIE7)2],0.58 nM
5,B2,0.53 nM
6,Ac-G[dA][dC][dD][dY][dP][dE][dW][dQ][dW][dL][dC][dA][dA]G[dK]-NH2 (disulfide 3-12 (inferred); also: linked to trifunctional crosslinker LC-TSAT) [PIE7-GK long claw],0.12 nM
7,Ac-[dK]G[dA][dC][dD][dY][dK][dE][dW][dQ][dW][dL][dC][dA][dA]-NH2 (disulfide 4-13 (inferred)) [PIE8],1.7 nM
8,"Ac-G[dA][dC][dD][dY][dP][dE][dW][dQ][dW][dL][dC][dA][dA]G[dK]-NH2 (disulfide 3-12 (inferred); also: dimer, C- to C-terminal link by PEG5 spacer) [C5C(PIE7-GK)2]",0.36 nM
9,"Ac-[dK]G[dA][dC][dD][dY][dP][dE][dW][dQ][dW][dL][dC][dA][dA]-NH2 (disulfide 4-13 (inferred); also: dimer, N- to N-terminal link by PEG5 spacer) [N5N(PIE7)2]",1.1 nM
10,Ac-[dK]G[dA][dC][dD][dY][dP][dE][dW][dR][dW][dL][dC][dA][dA][dA]-NH2 (disulfide 4-13 (inferred)) [PIE2-AAA],1.4 nM
11,Ac-G[dA][dC][dD][dY][dP][dE][dW][dQ][dW][dL][dC][dA][dA]G[dK][dK]-NH2 (disulfide 3-12 (inferred)) [PIE7-GKK],380 nM
12,Ac-[dK][dK]G[dA][dC][dD][dY][dP][dE][dW][dR][dW][dL][dC][dA][dA]-NH2 (disulfide 5-14 (inferred)) [2K-PIE2],2.6 nM
13,B3,0.23 nM
14,B4,0.13 nM
15,Ac-[dK][dK]G[dA][dC][dE][dL][dL]G[dW][dE][dW][dA][dW][dL][dC][dA][dA]-NH2 (disulfide 5-16 (inferred)) [D10-p5],9.5 nM
16,"Ac-G[dA][dC][dD][dY][dP][dE][dW][dQ][dW][dL][dC][dA][dA]G[dK]-NH2 (disulfide 3-12 (inferred); also: dimer, C- to C-terminal link by PEG9 spacer) [C9C(PIE7-GK)2]",0.35 nM
17,Ac-[dK]G[dA][dC][dD][dY][dP][dE][dW][dQ][dW][dL][dC][dA][dA]-NH2 (disulfide 4-13 (inferred); also: trimer linked by PEG9 spacers) [N9N(PIE7)3],0.25 nM
18,Ac-[dK]G[dA][dC][dD][dY][dP][dE][dW][dQ][dW][dL][dC][dA][dA]-NH2 (disulfide 4-13 (inferred)) [PIE7],620 nM
19,Ac-[dK][dK]G[dA][dC][dE][dS][dP][dE][dW][dR][dW][dL][dC][dA][dA]-NH2 (disulfide 5-14 (inferred)) [2K-PIE1],2.2 nM
20,Ac-[dH][dP][dC][dD][dY][dP][dE][dW][dQ][dW][dL][dC][dR][dL]G[dK]-NH2 (disulfide 3-12 (inferred)) [PIE14],33 nM
21,B5,0.8 nM
22,Ac-[dK]G[dA][dC][dD][dY][dP][dE][dW][dQ][dW][dL][dC][dA][dA]-NH2 (disulfide 4-13 (inferred); also: dimer linked N- to C-terminal by PEG9 spacer) [N9C(PIE7)2],0.33 nM
23,Ac-G[dA][dC][dD][dY][dP][dE][dW][dQ][dW][dL][dC][dA][dA]G[dK]-NH2 (disulfide 3-12 (inferred); also: PEG4 attached at the C-terminus) [PIE7-GK-PEG4],350 nM
24,Ac-[dH][dP][dC][dD][dY][dP][dE][dW][dQ][dW][dL][dC][dK][dL]G[dK]-NH2 (disulfide 3-12 (inferred)) [PIE13],41 nM

# Molecular target: HIV-1 JRFL envelope glycoprotein gp41 (N-trimer of the prehairpin intermediate) (HIV-1 strain JRFL)
# Assay: cell-based or functional assay
row,Binder,"IC50, JRFL pseudovirion entry"
1,"Ac-[dH][dP][dC][dD][dY][dP][dE][dW][dQ][dW][dL][dC][dE][dL]G[dK]-NH2 (disulfide 3-12 (inferred); also: dimer, C- to C-terminal link by PEG5 spacer) [C5C(PIE12)2]",14 nM
2,Ac-G[dA][dC][dD][dY][dP][dE][dW][dQ][dW][dL][dC][dA][dA]G[dK]-NH2 (disulfide 3-12 (inferred)) [PIE7-GK],15800 nM
3,B1,16.1 nM
4,Ac-[dH][dA][dC][dD][dY][dP][dE][dW][dQ][dW][dL][dC][dE][dL]G[dK]-NH2 (disulfide 3-12 (inferred)) [PIE15],1450 nM
5,Ac-[dK]G[dA][dC][dD][dY][dP][dE][dW][dQ][dW][dL][dC][dA][dA]-NH2 (disulfide 4-13 (inferred); also: dimer linked N- to C-terminal by PEG5 spacer) [N5C(PIE7)2],300 nM
6,B2,400 nM
7,B6,15 nM
8,Ac-G[dA][dC][dD][dY][dP][dE][dW][dQ][dW][dL][dC][dA][dA]G[dK]-NH2 (disulfide 3-12 (inferred); also: linked to trifunctional crosslinker LC-TSAT) [PIE7-GK long claw],20.6 nM
9,Ac-[dK]G[dA][dC][dD][dY][dK][dE][dW][dQ][dW][dL][dC][dA][dA]-NH2 (disulfide 4-13 (inferred)) [PIE8],~110000 nM
10,Ac-[dK]G[dA][dC][dD][dY][dP][dE][dW][dQ][dW][dL][dC][dA][dA]G[dK]-NH2 (disulfide 4-13 (inferred)) [K-PIE7-GK],14800 nM
11,"Ac-G[dA][dC][dD][dY][dP][dE][dW][dQ][dW][dL][dC][dA][dA]G[dK]-NH2 (disulfide 3-12 (inferred); also: dimer, C- to C-terminal link by PEG5 spacer) [C5C(PIE7-GK)2]",200 nM
12,"Ac-[dK]G[dA][dC][dD][dY][dP][dE][dW][dQ][dW][dL][dC][dA][dA]-NH2 (disulfide 4-13 (inferred); also: dimer, N- to N-terminal link by PEG5 spacer) [N5N(PIE7)2]",1410 nM
13,Ac-[dK]G[dA][dC][dD][dY][dP][dE][dW][dR][dW][dL][dC][dA][dA]-NH2 (disulfide 4-13 (inferred)) [PIE2],66000 nM
14,Ac-G[dA][dC][dD][dY][dP][dE][dW][dQ][dW][dL][dC][dA][dA]G[dK][dK]-NH2 (disulfide 3-12 (inferred)) [PIE7-GKK],19100 nM
15,B3,86.6 nM
16,B4,6.7 nM
17,Ac-[dK][dK]G[dA][dC][dE][dL][dL]G[dW][dE][dW][dA][dW][dL][dC][dA][dA]-NH2 (disulfide 5-16 (inferred)) [D10-p5],> 25000 nM
18,"Ac-G[dA][dC][dD][dY][dP][dE][dW][dQ][dW][dL][dC][dA][dA]G[dK]-NH2 (disulfide 3-12 (inferred); also: dimer, C- to C-terminal link by PEG9 spacer) [C9C(PIE7-GK)2]",220 nM
19,Ac-[dK]G[dA][dC][dD][dY][dP][dE][dW][dQ][dW][dL][dC][dA][dA]-NH2 (disulfide 4-13 (inferred); also: trimer linked by PEG9 spacers) [N9N(PIE7)3],220 nM
20,Ac-[dK]G[dA][dC][dD][dY][dP][dE][dW][dQ][dW][dL][dC][dA][dA]-NH2 (disulfide 4-13 (inferred)) [PIE7],24000 nM
21,Ac-[dK][dK]G[dA][dC][dE][dS][dP][dE][dW][dR][dW][dL][dC][dA][dA]-NH2 (disulfide 5-14 (inferred)) [2K-PIE1],> 100000 nM
22,Ac-[dH][dP][dC][dD][dY][dP][dE][dW][dQ][dW][dL][dC][dR][dL]G[dK]-NH2 (disulfide 3-12 (inferred)) [PIE14],1050 nM
23,B5,1090 nM
24,Ac-[dK]G[dA][dC][dD][dY][dP][dE][dW][dQ][dW][dL][dC][dA][dA]-NH2 (disulfide 4-13 (inferred); also: dimer linked N- to C-terminal by PEG9 spacer) [N9C(PIE7)2],310 nM
25,Ac-G[dA][dC][dD][dY][dP][dE][dW][dQ][dW][dL][dC][dA][dA]G[dK]-NH2 (disulfide 3-12 (inferred); also: PEG4 attached at the C-terminus) [PIE7-GK-PEG4],13100 nM
26,Ac-[dH][dP][dC][dD][dY][dP][dE][dW][dQ][dW][dL][dC][dK][dL]G[dK]-NH2 (disulfide 3-12 (inferred)) [PIE13],1470 nM

# Molecular target: T1, HIV-1 HXB2 envelope glycoprotein gp41 …
# Assay: cell-based or functional assay
# Remark: another data set of the same source
row,Binder,"IC50, HXB2 pseudovirion entry"
1,B7,300 nM
